Starred links: 1 amine or outer side, 2 acyl side, 3 side chain; linkers in the order of their positions; H or OH if unused. Positions of bridges follow the written chain, without caps; N, C: chain ends. Non-standard residues stand in square brackets, D forms with d. Groups on a side chain read outwards from the residue. Primed or numbered codes have the meaning given here. No end group written: not given here. *: point of attachment. (4Pippip)GlnR = (S)-5-([1,4'-bipiperidin]-1'-yl)-2-amino-5-oxopentanoic acid (Gln side-chain amide with 4-piperidinopiperidine), O=C(CC[C@H](N[*:1])C(=O)[*:2])N1CCC(N2CCCCC2)CC1; (4MePpzPip)GlnR = (S)-2-amino-5-(4-(4-methylpiperazin-1-yl)piperidin-1-yl)-5-oxopentanoic acid, CN1CCN(C2CCN(C(=O)CC[C@H](N[*:1])C(=O)[*:2])CC2)CC1; (Me2NPrPip)GlnR = (S)-2-amino-5-(4-(3-(dimethylamino)propyl)piperazin-1-yl)-5-oxopentanoic acid, CN(C)CCCN1CCN(C(=O)CC[C@H](N[*:1])C(=O)[*:2])CC1; PyrS2″ = (S)-3-amino-1-((pent-4-en-1-yloxy)carbonyl)pyrrolidine-3-carboxylic acid (stapling residue), C=CCCCOC(=O)N1CC[C@@](N[*:1])(C(=O)[*:2])C1; (TfePpz)GlnR = (S)-2-amino-5-oxo-5-(4-(2,2,2-trifluoroethyl)piperazin-1-yl)pentanoic acid, O=C(CC[C@H](N[*:1])C(=O)[*:2])N1CCN(CC(F)(F)F)CC1; (RDMAPyr)GlnR = (S)-2-amino-5-((R)-3-(dimethylamino)pyrrolidin-1-yl)-5-oxopentanoic acid, CN(C)[C@@H]1CCN(C(=O)CC[C@H](N[*:1])C(=O)[*:2])C1; B5(4) = 2,2-bis(4-pentenyl)glycine = 2-amino-2-(pent-4-en-1-yl)hept-6-enoic acid (stitching residue), C=CCCCC(CCCC=C)(N[*:1])C(=O)[*:2]; (CH2NMe2)4SEF = (S)-2-amino-3-(4-(3-(dimethylamino)prop-1-yn-1-yl)phenyl)propanoic acid, CN(C)CC#Cc1ccc(C[C@H](N[*:1])C(=O)[*:2])cc1; TfeGA = (S)-2-amino-3-((carboxymethyl)(2,2,2-trifluoroethyl)amino)propanoic acid, O=C([C@H](CN(CC(=O)[*:3])CC(F)(F)F)N[*:1])[*:2]; PyrS2 = (S)-3-amino-1-((pent-4-en-1-yloxy)carbonyl)pyrrolidine-3-carboxylic acid, C=CCCCOC(=O)N1CC[C@@](N[*:1])(C(=O)[*:2])C1; F2PipNva = (S)-2-amino-5-(4,4-difluoropiperidin-1-yl)pentanoic acid, O=C([C@H](CCCN1CCC(F)(F)CC1)N[*:1])[*:2]; Lithocholoyl = C[C@H](CCC(=O)*)[C@H]1CC[C@H]2[C@@H]3CC[C@@H]4C[C@H](O)CC[C@]4(C)[C@H]3CC[C@]12C; MorphAsn = (S)-2-amino-4-morpholino-4-oxobutanoic acid, O=C(C[C@H](N[*:1])C(=O)[*:2])N1CCOCC1; B5(3) = 2,2-bis(4-pentenyl)glycine (stitching residue), C=CCCCC(CCCC=C)(N[*:1])C(=O)[*:2]; Me3AdamantC = 3,5,7-trimethyladamantane-1-carbonyl, CC12CC3(C)CC(C)(C1)CC(C(=O)*)(C2)C3; Phe(3-CF3) = N[C@@H](Cc1cccc(C(F)(F)F)c1)C(=O)O; Phe(4-CF3) = N[C@@H](Cc1ccc(C(F)(F)F)cc1)C(=O)O; Nva(5-morpholino) = N[C@@H](CCCN1CCOCC1)C(=O)O; Phe(2-CF3) = N[C@@H](Cc1ccccc1C(F)(F)F)C(=O)O; Phe(2-Cl) = N[C@@H](Cc1ccccc1Cl)C(=O)O; Ala(cPent) = N[C@@H](CC1CCCC1)C(=O)O; Bta = N[C@@H](Cc1csc2ccccc12)C(=O)O; αAllylPro = C=CC[C@@]1(C(=O)O)CCCN1; tBuAla = CC(C)(C)C[C@H](N)C(=O)O; 3Thi = N[C@@H](Cc1ccsc1)C(=O)O; TfeGA″ = not defined here; PEG2′ = not defined here
B1: I-1356 (peptide)
peptide: [αAllylPro]D[tBuAla][B5(4)]DDAAFS[PyrS2″]F[Bta]S-NH2
modifications: staple 1-4, 4-11; not fully specified; printed as PL3-Asp-Npg-B5-Asp-Asp-Ala-Ala-Phe-Ser-PyrS2-Phe-BztA-Ser-NH2

Experiments:
Assay in all cases: cell-based or functional assay
[1] = molecular target: T1, Bcat-Halo (beta-catenin HaloTag fusion expressed in HEK293 cells) (UniProt P35222 1-781)
T1 sequence (looked up): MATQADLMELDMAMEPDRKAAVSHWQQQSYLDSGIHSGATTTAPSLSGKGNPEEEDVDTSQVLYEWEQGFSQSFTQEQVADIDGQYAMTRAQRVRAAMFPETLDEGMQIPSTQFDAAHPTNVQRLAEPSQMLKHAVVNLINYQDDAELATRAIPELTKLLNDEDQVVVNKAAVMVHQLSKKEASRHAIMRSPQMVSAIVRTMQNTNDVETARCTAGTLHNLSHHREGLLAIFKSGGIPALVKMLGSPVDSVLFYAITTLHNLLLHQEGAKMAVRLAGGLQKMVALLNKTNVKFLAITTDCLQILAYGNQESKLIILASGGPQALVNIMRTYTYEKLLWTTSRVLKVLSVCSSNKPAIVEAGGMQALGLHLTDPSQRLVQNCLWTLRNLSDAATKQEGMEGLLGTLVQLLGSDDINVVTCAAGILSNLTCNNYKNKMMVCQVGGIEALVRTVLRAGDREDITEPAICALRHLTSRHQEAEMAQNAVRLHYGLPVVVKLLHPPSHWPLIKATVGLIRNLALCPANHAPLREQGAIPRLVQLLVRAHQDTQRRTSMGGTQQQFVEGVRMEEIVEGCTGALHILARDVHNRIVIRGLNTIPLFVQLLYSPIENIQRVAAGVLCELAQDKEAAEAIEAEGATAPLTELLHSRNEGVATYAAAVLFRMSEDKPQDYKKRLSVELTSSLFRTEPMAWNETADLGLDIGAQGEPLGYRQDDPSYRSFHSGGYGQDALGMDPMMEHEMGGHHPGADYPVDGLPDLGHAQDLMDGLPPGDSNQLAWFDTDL

[2] = molecular target: T2, Bcat-Halo (beta-catenin HaloTag construct transfected into HEK293 cells) (UniProt P35222 1-781)
T2 sequence (looked up): T1 sequence (looked up)

[3] = molecular target: T3, B-cat-Halo (beta-catenin HaloTag NanoBRET construct expressed in HEK293 cells) (UniProt P35222 1-781, HaloTag NanoBRET 618 Ligand bound in the assay)
T3 sequence (looked up): T1 sequence (looked up)

| Binder | NanoBRET Abs IC50 [1] | NanoBRET Abs IC50 [2] | also measured |
| --- | --- | --- | --- |
| Ac-[αAllylPro]D[tBuAla][B5(4)]DDAAF[Phe(3-CF3)][PyrS2][Phe(2-Cl)][Bta]Q-NH2 (staple 1-4, 4-11) [I-1368] | 14.2 µM | – | – |
| Ac-[αAllylPro]D[tBuAla][B5(4)]DDAK([PEG2′-Lithocholoyl])FL[PyrS2″][3Thi][Bta]Q-NH2 (staple 1-4, 4-11) [I-1474] | – | > 20 µM | – |
| Ac-[αAllylPro]D[tBuAla][B5(4)]DD[(CH2NMe2)4SEF]AFL[PyrS2]F[Bta]Q (staple 1-4, 4-11) [I-1467] | – | 9.6 µM | – |
| Ac-[αAllylPro]D[tBuAla][B5(4)]DDAAF[Phe(4-CF3)][PyrS2][Phe(2-Cl)][Bta]Q-NH2 (staple 1-4, 4-11) [I-1369] | 9.9 µM | – | – |
| Ac-[αAllylPro]D[tBuAla][B5(3)]D[TfeGA]AAFL[PyrS2″][3Thi][Bta][(4Pippip)GlnR]-NH2 (staple 1-4, 4-11; not fully specified) [I-1797] | – | – | NanoBRET Abs IC50 [3]: 22.5 µM |
| [αAllylPro]D[tBuAla][B5(4)]DDAAFL[PyrS2″][Ala(cPent)][Bta]Q-NH2 (staple 1-4, 4-11) [I-1353] | 8.8 µM | – | – |
| Ac-[αAllylPro]D[tBuAla][B5(3)]DDAAFL[PyrS2″][3Thi][Bta]QK([PEG2′-Me3AdamantC])-NH2 (staple 1-4, 4-11) [I-1480] | – | 9.3 µM | – |
| Ac-[αAllylPro]D[tBuAla][B5(3)]DD[Nva(5-morpholino)]AFL[PyrS2″][3Thi][Bta]Q-NH2 (staple 1-4, 4-11) [I-1481] | – | 39.7 µM | – |
| B1 | > 20 µM | – | – |
| [αAllylPro]D[tBuAla][B5(4)]DDAAFS[PyrS2″]F[Bta]S-NH2 (staple 1-4, 4-11) [I-1357] | 33.6 µM | – | – |
| Ac-[αAllylPro]D[tBuAla][B5(3)]DD[F2PipNva]AFL[PyrS2″][3Thi][Bta]Q-NH2 (staple 1-4, 4-11) [I-1482] | – | 18 µM | – |
| [αAllylPro]D[tBuAla][B5(4)]DDAAFL[PyrS2]F[Bta]Q-NH2 (staple 1-4, 4-11) [I-1361] | > 20 µM | – | – |
| Ac-[αAllylPro]D[tBuAla][B5(4)]DDAAF[Phe(2-CF3)][PyrS2][Phe(2-Cl)][Bta]Q-NH2 (staple 1-4, 4-11) [I-1367] | 7.8 µM | – | – |
| Ac-[αAllylPro]D[tBuAla][B5(4)]DDAAFL[PyrS2″][3Thi][Bta]QK([PEG2′-Lithocholoyl])-NH2 (staple 1-4, 4-11) [I-1478] | – | 17.1 µM | – |
| Ac-[αAllylPro]DK(Me3AdamantC)[B5(4)]DDAAFL[PyrS2][3Thi][Bta]Q-NH2 (staple 1-4, 4-11) [I-1471] | – | > 20 µM | – |
| Ac-[αAllylPro]D[tBuAla][B5(4)]DDAAF[Phe(3-CF3)][PyrS2][3Thi][Bta]Q-NH2 (staple 1-4, 4-11) [I-1364] | 10.5 µM | – | – |

| Binder | NanoBRET Abs IC50 [1] | NanoBRET Abs IC50 [2] | also measured |
| --- | --- | --- | --- |
| Ac-[αAllylPro]D[tBuAla][B5(3)]D[TfeGA]AAFL[PyrS2″][3Thi][Bta][(RDMAPyr)GlnR]-NH2 (staple 1-4, 4-11; not fully specified) [I-1804] | – | – | NanoBRET Abs IC50 [3]: 9.4 µM |
| Ac-[αAllylPro]D[tBuAla][B5(4)]DDAAF[Phe(4-CF3)][PyrS2][3Thi][Bta]Q-NH2 (staple 1-4, 4-11) [I-1365] | 9.7 µM | – | – |
| Ac-[αAllylPro]DK([PEG2′-Lithocholoyl])[B5(4)]DDAAFL[PyrS2][3Thi][Bta]Q-NH2 (staple 1-4, 4-11) [I-1470] | – | > 20 µM | – |
| Ac-[αAllylPro]D[tBuAla][B5(3)]D[TfeGA]AAFL[PyrS2″][3Thi][Bta][(4MePpzPip)GlnR]-NH2 (staple 1-4, 4-11; not fully specified) [I-1801] | – | – | NanoBRET Abs IC50 [3]: 17.5 µM |
| [αAllylPro]D[tBuAla][B5(4)]DDAAFL[PyrS2]F[Bta]Q-NH2 (staple 1-4, 4-11) [I-1362] | 19.6 µM | – | – |
| Ac-[αAllylPro]D[tBuAla][B5(3)]D[TfeGA]AAFL[PyrS2″][3Thi][Bta][(Me2NPrPip)GlnR]-NH2 (staple 1-4, 4-11; not fully specified) [I-1799] | – | – | NanoBRET Abs IC50 [3]: 25.8 µM |
| Ac-[αAllylPro]D[tBuAla][B5(4)]DDAAFF[PyrS2][Phe(2-Cl)][Bta]Q-NH2 (staple 1-4, 4-11) [I-1366] | 7.5 µM | – | – |
| Ac-[αAllylPro]D[tBuAla][B5(4)]DDAK([PEG2′-Me3AdamantC])FL[PyrS2″][3Thi][Bta]Q-NH2 (staple 1-4, 4-11) [I-1476] | – | > 20 µM | – |
| Ac-[αAllylPro]D[tBuAla][B5(4)]DDAAF[Phe(2-CF3)][PyrS2][3Thi][Bta]Q-NH2 (staple 1-4, 4-11) [I-1363] | 5.5 µM | – | – |
| Ac-[αAllylPro]D[tBuAla][B5(3)]DD[MorphAsn]AFL[PyrS2″][3Thi][Bta]Q-NH2 (staple 1-4, 4-11) [I-1483] | – | > 20 µM | – |
| [αAllylPro]D[tBuAla][B5(4)]DDAAFN[PyrS2″][Ala(cPent)][Bta]Q-NH2 (staple 1-4, 4-11) [I-1352] | 19.5 µM | – | – |
| Ac-[αAllylPro]D[tBuAla][B5(3)]D[TfeGA]AAFL[PyrS2″][3Thi][Bta][(TfePpz)GlnR]-NH2 (staple 1-4, 4-11) [I-1803] | – | – | NanoBRET Abs IC50 [3]: 7.4 µM |
| Ac-[αAllylPro]D[tBuAla][B5(3)]D[TfeGA″]AAFL[PyrS2″][3Thi][Bta][(Me2NPrPip)GlnR]-NH2 (staple 1-4, 4-11; not fully specified; reading uncertain) [I-1800] | – | – | NanoBRET Abs IC50 [3]: 25.2 µM |
| Ac-[αAllylPro]DK([PEG2′-Me3AdamantC])[B5(4)]DDAAFL[PyrS2][3Thi][Bta]Q-NH2 (staple 1-4, 4-11) [I-1472] | – | > 20 µM | – |
| Ac-[αAllylPro]D[tBuAla][B5(3)]D[TfeGA″]AAFL[PyrS2″][3Thi][Bta][(4MePpzPip)GlnR]-NH2 (staple 1-4, 4-11; not fully specified; reading uncertain) [I-1802] | – | – | NanoBRET Abs IC50 [3]: 25.2 µM |
